{
  "source": "IntAct's records for PubMed 20494986",
  "parents": {"B1": {"name": "Type 3 secretion system chaperone PscG (Pseudomonas aeruginosa (strain ATCC 15692 / PAO1 / 1C / PRS 101 / LMG 12228)), P95435 (parent)", "chain": "MDTSLIRELAELALAGSGQHCHEEALCIAEWLERLGQDEAARLIRISSLANQGRYQEALAFAHGNPWPALEPWFALCEWHLGLGAALDRRLAGLGGSSDPALADFAAGMRAQVRT", "partner": "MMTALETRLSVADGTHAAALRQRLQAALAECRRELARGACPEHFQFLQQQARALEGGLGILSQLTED"}, "B2": {"name": "Type 3 secretion system chaperone PscE (Pseudomonas aeruginosa (strain ATCC 15692 / PAO1 / 1C / PRS 101 / LMG 12228)), Q9I317 (parent)", "chain": "B1 partner", "partner": "B1 chain"}},
  "data": [
    {"variants_of": "B1", "conditions": "with psce_pseae pscE, Q9I317", "values": [
      {"variant": "MDTSLIRELAELALAGSGQHCHEEALCSAESLERLGQDEAARLIRISSLANQGRYQEALAFAHGNPWPALEPWFALCEWHLGLGAALDRRLAGLGGSSDPALADFAAGMRAQVRT", "note": "[I28S;W31S]", "effect of a mutation on the interaction": "decreasing interaction"},
      {"variant": "MDTSSIRESAELALAGSGQHCHEEALCIAEWLERLGQDEAARLIRISSLANQGRYQEALAFAHGNPWPALEPWFALCEWHLGLGAALDRRLAGLGGSSDPALADFAAGMRAQVRT", "note": "[L5S;L9S]", "effect of a mutation on the interaction": "decreasing interaction"},
      {"variant": "MDTSSIRELAELALAGSGQHCHEEALCIAEWLERLGQDEAARLIRISSLANQGRYQEALAFAHGNPWPALEPWFALCEWHLGLGAALDRRLAGLGGSSDPALADFAAGMRAQVRT", "note": "[L5S]", "effect of a mutation on the interaction": "decreasing interaction"},
      {"variant": "MDTSLIRELAELALAGSGQHCHEEALCSAEWLERLGQDEAARLIRISSLANQGRYQEALAFAHGNPWPALEPWFALCEWHLGLGAALDRRLAGLGGSSDPALADFAAGMRAQVRT", "note": "[I28S]", "effect of a mutation on the interaction": "decreasing interaction"},
      {"variant": "MDTSLIRESAELALAGSGQHCHEEALCIAEWLERLGQDEAARLIRISSLANQGRYQEALAFAHGNPWPALEPWFALCEWHLGLGAALDRRLAGLGGSSDPALADFAAGMRAQVRT", "note": "[L9S]", "effect of a mutation on the interaction": "decreasing interaction"}
    ]},
    {"variants_of": "B2", "conditions": "with pscg_pseae pscG, P95435", "values": [
      {"variant": "MMTALETRLSVADGTHAAALRQRLQAALAECRRELARGACPEHFQFLQQQARALEGDLGILSQLTED", "note": "[G57D]", "effect of a mutation on the interaction": "disrupting interaction"},
      {"variant": "MMTALETRLSVADGTHAAASRQRLQAALAECRRELARGACPEHFQFLQQQARALEGGLGILSQLTED", "note": "[L20S]", "effect of a mutation on the interaction": "decreasing interaction"}
    ]}
  ]
}
